Results taken from patent US12012599B2, “Compositions and methods for modulating left-right differentiation factor (LEFTY) and bone morphogenic factor (BMP)” (CZ Biohub SF LLC, priority 2018, dated 2024).

What was measured:
pSMAD5 = assay: Western-blot of pSMAD5 in Comma-D mammary epithelial cells; type: cell-based, mouse; settings: Comma-D cells blocked with LEFTY1 200 ng/ml 1 hour, stimulated with BMP7 and Nodal 50 ng/ml 30 minutes
Procedure: FIGS. 4J-4L. LEFTY1 inhibits pSMAD2 and pSMAD5 in Comma-D mouse mammary epithelial cells. […] Comma-D cells were serum starved 16 hours and blocked with LEFTY1 (200 ng/ml) for 1 hour and stimulated with BMP7 (50 ng/ml) and Nodal (50 ng/ml) for 30 minutes in serum free media. Cells were harvested in 1×RIPA Buffer with 1× protease and phosphatase inhibitors on ice. Lysates were diluted in 4× sample buffer and boiled at 95° C. for 5 minutes and then run on a 10% SDS-page gradient gels at 100V for 1 hour. […] The membranes were incubated with either pSMAD2, pSMAD5, total SMAD2/3 or SMAD1/5/8 antibodies overnight. Incubation with secondary antibodies containing fluorophores at 1:20,000 dilution (IRDye 800CW conjugated goat anti-rabbit #926-32211, IRDye 680 conjugated goat anti-mouse antibodies #926-32220, LI-COR Biosciences, Lincoln, NE) enabled visualization on the Odyssey Infrared Imaging System from LI-COR Biosciences. […] Data are represented as median±S.D. Statistical analysis, one-way ANOVA with post-hoc Tukey multiple comparison, ****p<0.0001, ***p<0.001; unless stated analysis is non-significant with p>0.05.

mammary epithelial cells = assay: 3D organotypic mammary organoid formation; type: cell-based, mouse; settings: Wnt-dependent organoid culture
Procedure: FIGS. 8A-8D. Autocrine and paracrine effects of NODAL and LEFTY1 in mammary epithelial cell populations. […] The sorted cells were grown in the 3D organotypic assays to test their organoid formation potential in the presence of NODAL. […] Each dot represents an organoid (n=3). […] Data are represented as median±S.D. Statistical analysis, One-way ANOVA with Dunnet's adjustment, **p<0.01.
FIGS. 9A-9F. Opposing effects of LEFTY1 and BMP7 in mammary organoid formation. […] Data are represented as median±S.D. Statistical analysis, one-way ANOVA with Dunnet's adjustment, *p<0.05; **p<0.01; ***p<0.001.
Since LEFTY1 and BMP7 were able to affect the branching of mammary glands, we hypothesized that the LEFTY1/BMP7 signaling axis may affect the proliferation of mammary epithelial cells. We exposed freshly dissociated mammary epithelial cells to NODAL, LEFTY1, BMP7 and CRIPTO-1 in a modified Wnt-dependent in vitro organoid culture system that was optimized for progenitor cell propagation (Zeng & Nusse, Cell Stem Cell 6, 568-577 (2010) and Jamieson et al., Development 144, 1065-1071 (2017)). In Xenopus, Wnt signaling controls the expression of Nodal and Cripto-1 during gastrulation. Consistent with the evolutionary conservation of the interaction between the Nodal and Wnt pathways (Branford et al., Curr Biol 12, 2136-2141 (2002)), NODAL had no effect on organoid formation in our Wnt-driven culture system (FIG. 8A).
In organoid cultures, the basal cells give rise to mixed phenotype colonies of luminal and basal cells. To prevent the formation of LEFTY1-expressing cells during organoid formation, genetic knockdown of LEFTY1 was done. To knock-down mouse LEFTY1, pSICO-R lentiviral vector was used (Ventura, PNAS, 2004). Different shRNAs were designed and cloned into pSICO-R. The target sequences of the shRNAs cloned were GGACAAGGCTGATGTGGAA (SEQ ID NO: 14) and GCAGGTTCCTGGTGTCAGA (SEQ ID NO: 15). The efficiency of knock-down was tested by transfecting HEK293T cells with pSICO-R-shLEFTY1 constructs with pEGFP-C3-LEFTY1 at 1:4 and 1:20 ratio. Decrease on GFP signal was used to calculate the percentage of inhibition of the shLEFTY sequences. […] (p<0.001 and p<0.01, respectively) (FIGS. 8C-8D and FIGS. 9E-9F).

B1: LEFTY1: left-right determination factor 1, secreted TGF-β superfamily protein; generic LEFTY may mean LEFTY1 or LEFTY2 (protein, UniProt O75610 77-366, looked up)
Left-right determination …: RFSQSFREVAGRFLALEASTHLLVFGMEQRLPPNSELVQAVLRLFQEPVPKAALHRHGRLSPRSARARVTVEWLRVRDDGSNRTSLIDSRLVSVHESGWKAFDVTEAVNFWQQLSRPRQPLLLQVSVQREHLGPLASGAHKLVRFASQGAPAGLGEPQLELHTLDLGDYGAQGDCDPEAPMTEGTRCCRQEMYIDLQGMKWAENWVLEPPGFLAYECVGTCRQPPEALAFKWPFLGPRQCIASETDSLPMIVSIKEGGRTRPQVVSLPNMRVQKCSCASDGALVPRRLQP
pSMAD5
  pSMAD5 signal: inhibited
Mammary epithelial cells
  organoid formation (frequency, number of colonies): increased the number of colonies

B2: BMP7: bone morphogenetic protein 7, BMPR2 ligand (protein)
chain: STGSKQRSQNRSKTPKNQEALRMANVAENSSSDQRQACKKHELYVSFRDLGWQDWIIAPEGYAAYYCEGECAFPLNSYMNATNHAIVQTLVHFINPETVPKPCCAPTQLNAISVLYFDDSSNVILKKYRNMVVRACGCH
Mammary epithelial cells
  organoid formation (frequency, number of colonies): significantly decreased
  organoid size: significantly decreased
